Measured values taken from patent US20080161236 (published 2008).

Legend:
[1] = molecular target: Botulinum neurotoxin serotype A light chain (50 kD zinc endopeptidase) (Clostridium botulinum, UniProt P0DPI1 P0DPI1:2-448)
[2] = molecular target: Botulinum neurotoxin serotype B holotoxin (Clostridium botulinum, UniProt B1INP5;B1INP5 B1INP5:2-441,B1INP5:442-1291)
[3] = molecular target: Botulinum neurotoxin serotype B light chain (Clostridium botulinum, UniProt B1INP5 B1INP5:2-441)
[4] = molecular target: Botulinum neurotoxin serotype A holotoxin (Clostridium botulinum, UniProt P0DPI1;P0DPI1 P0DPI1:2-448,P0DPI1:449-1296)
Botulinum neurotoxin serotype A holotoxin, sequence (P0DPI1 2-448, chain 1 of 2): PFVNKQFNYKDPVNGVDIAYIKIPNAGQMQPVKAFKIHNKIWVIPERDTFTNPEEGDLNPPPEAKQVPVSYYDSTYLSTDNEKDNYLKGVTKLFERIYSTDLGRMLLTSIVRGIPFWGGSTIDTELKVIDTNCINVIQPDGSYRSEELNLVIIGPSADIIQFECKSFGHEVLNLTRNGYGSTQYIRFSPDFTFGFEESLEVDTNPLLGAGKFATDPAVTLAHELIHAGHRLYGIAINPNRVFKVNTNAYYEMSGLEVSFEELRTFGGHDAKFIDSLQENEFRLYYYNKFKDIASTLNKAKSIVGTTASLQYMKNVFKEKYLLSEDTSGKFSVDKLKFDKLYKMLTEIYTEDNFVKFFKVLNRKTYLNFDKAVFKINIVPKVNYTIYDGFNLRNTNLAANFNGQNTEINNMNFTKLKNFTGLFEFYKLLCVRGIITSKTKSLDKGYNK
Botulinum neurotoxin serotype A holotoxin, sequence (P0DPI1 449-1296, chain 2 of 2): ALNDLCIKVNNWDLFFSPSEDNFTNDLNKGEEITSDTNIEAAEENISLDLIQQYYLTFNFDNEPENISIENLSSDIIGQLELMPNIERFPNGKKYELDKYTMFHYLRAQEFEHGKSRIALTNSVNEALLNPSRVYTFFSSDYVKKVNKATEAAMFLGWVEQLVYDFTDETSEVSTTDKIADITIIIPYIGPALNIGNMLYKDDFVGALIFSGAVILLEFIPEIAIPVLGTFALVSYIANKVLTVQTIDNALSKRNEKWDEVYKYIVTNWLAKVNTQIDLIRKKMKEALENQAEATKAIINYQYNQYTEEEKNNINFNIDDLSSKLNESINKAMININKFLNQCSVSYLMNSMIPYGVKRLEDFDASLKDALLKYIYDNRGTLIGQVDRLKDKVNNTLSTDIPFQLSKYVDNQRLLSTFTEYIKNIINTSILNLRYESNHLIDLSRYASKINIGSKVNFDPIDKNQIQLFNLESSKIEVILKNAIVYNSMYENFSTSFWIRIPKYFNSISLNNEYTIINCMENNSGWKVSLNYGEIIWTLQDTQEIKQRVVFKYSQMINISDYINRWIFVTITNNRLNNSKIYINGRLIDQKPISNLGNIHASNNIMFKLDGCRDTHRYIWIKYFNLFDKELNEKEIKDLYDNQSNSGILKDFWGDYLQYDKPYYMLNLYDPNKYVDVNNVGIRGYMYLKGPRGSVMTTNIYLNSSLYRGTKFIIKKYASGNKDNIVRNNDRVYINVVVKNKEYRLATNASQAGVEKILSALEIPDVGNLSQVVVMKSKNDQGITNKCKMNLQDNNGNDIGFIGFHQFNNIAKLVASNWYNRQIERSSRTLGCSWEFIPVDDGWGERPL

Measured: binding result

Botulinum neurotoxin serotype B light chain, sequence (B1INP5 2-441, one chain of several): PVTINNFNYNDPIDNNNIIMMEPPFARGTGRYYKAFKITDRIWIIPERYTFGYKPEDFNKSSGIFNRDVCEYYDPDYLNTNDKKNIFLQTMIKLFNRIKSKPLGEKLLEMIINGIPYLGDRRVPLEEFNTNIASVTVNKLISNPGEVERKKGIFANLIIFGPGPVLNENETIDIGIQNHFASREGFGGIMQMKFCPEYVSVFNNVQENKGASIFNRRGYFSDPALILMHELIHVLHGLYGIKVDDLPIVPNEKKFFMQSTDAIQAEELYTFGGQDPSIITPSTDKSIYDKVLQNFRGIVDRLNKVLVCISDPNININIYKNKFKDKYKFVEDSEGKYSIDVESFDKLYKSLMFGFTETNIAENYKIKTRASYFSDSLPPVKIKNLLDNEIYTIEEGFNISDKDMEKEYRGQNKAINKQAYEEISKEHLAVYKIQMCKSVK
Botulinum neurotoxin serotype B holotoxin, sequence (B1INP5 2-441, chain 1 of 2): as the sequence (B1INP5 2-441, one chain of several) above
Botulinum neurotoxin serotype B holotoxin, sequence (B1INP5 442-1291, chain 2 of 2): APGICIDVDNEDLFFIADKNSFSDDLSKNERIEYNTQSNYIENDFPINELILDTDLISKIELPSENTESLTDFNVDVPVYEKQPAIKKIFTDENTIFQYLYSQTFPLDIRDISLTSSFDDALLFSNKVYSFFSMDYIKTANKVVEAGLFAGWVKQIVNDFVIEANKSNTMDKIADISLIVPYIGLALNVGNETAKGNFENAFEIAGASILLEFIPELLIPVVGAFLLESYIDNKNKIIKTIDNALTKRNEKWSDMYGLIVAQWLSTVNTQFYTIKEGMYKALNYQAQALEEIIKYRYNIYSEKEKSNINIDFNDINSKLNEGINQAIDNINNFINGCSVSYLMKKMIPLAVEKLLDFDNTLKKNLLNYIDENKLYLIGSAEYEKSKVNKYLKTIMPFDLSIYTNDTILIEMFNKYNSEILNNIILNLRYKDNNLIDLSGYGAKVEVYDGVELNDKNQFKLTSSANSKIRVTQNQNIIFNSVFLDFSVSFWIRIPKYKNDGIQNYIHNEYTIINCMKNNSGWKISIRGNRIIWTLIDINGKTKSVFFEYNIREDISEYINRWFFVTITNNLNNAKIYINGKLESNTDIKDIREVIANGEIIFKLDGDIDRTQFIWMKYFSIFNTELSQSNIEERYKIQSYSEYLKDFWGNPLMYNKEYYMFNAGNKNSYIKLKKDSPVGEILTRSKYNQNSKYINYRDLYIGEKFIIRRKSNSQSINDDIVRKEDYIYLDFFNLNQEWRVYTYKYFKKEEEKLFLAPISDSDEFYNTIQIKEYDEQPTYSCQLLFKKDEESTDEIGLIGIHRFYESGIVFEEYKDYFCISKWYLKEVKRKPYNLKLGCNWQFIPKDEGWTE
Botulinum neurotoxin serotype A light chain (50 kD zinc endopeptidase), sequence (P0DPI1 2-448, one chain of several): as the sequence (P0DPI1 2-448, chain 1 of 2) above

B1: BoNT A/B LC aptamer (ssDNA)
DNA: CATCCGTCACACCTGCTCTGATCAGGGAAGACGCCAACACTGGTGTTGGCTCCCGTATCA
binds: all assays above

B2: BoNT A/B HT aptamer (ssDNA)
DNA: CATCCGTCACACCTGCTCTGCTATCACATGCCTGCTGAAGTGGTGTTGGCTCCCGTATCA
binds: [1] | [2] | [3]
